Reference: publication PMC6876990 (2019)

Biological target: T1, Smac peptide AVPIAQKSEKY (Homo sapiens)
T1 chain: AVPIAQKSEKY
Experiment: ITC

B1: WT-XIAP BIR3 241-356 (protein)
chain: SDAVSSDRNFPNSTNLPRNPSMADYEARIFTFGTWIYSVNKEQLARAGFYALGEGDKVKCFHCGGGLTDWKPSEDPWEQHAKWYPGCKYLLEQKGQEYINNIHLTHSLEECLVRTT
B1 gave a Kd of 428 nM.
